# Measurements as given in patent publication US7067277B1, “Chimeric G proteins and uses thereof” (H. Lundbeck A/S, priority 1999, dated 2006).
# Substitutions are numbered along the chain they refer to.
# T1: h GALR2 (Homo sapiens, UniProt O43603)
# T1 construct: expressed in transfected cells; host or cells: COS-7
# T1 sequence (O43603 1-387): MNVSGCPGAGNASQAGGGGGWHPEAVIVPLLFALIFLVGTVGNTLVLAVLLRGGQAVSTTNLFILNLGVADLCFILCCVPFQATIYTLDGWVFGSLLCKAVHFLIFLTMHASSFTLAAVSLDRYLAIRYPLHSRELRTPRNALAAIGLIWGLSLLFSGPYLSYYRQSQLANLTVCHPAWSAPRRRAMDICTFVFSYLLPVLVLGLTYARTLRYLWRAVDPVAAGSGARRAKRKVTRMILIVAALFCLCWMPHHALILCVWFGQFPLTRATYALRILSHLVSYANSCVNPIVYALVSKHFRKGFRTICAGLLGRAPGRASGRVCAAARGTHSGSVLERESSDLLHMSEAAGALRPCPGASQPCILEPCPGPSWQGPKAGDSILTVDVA
# B1: cGαq/z5: chimeric Gα subunit: C-terminal final 5 amino acids of C. elegans Gαq replaced with those of hGαz (SEQ ID NO: 1) (protein)
# chain: MACCLSEEAREQKRINQEIEKQLQRDKRNARRELKLLLLGTGESGKSTFIKQMRIIHGQGYSEEDKRAHIRLVYQNVFMAIQSMIRAMDTLDIKFGNESEELQEKAAVVREVDFESVTSFEEPYVSYIKELWEDSGIQECYDRRREYQLTDSAKYYLSDLRRLAVPDYLPTEQDILRVRVPTTGIIEYPFDLEQIIFRMVDVGGQRSERRKWIHCFENVTSIMFLVALSEYDQVLVECDNENRMEESKALFRTIITYPWFTNSSVILFLNKKDLLEEKILYSHLADYFPEYDGPPRDPIAAREFILKMFVDLNPDADKIIYSHFTCATDTENIRFVFAAVKDTILQHNLKYIGLC
# modifications: C. elegans
# B2: cGαq/z9: C. elegans Gαq with Gαz portion of the C-terminal tail extended to 9 amino acids (SEQ ID NO: 2) (protein)
# chain: B1 chain with H347N
# modifications: C. elegans
# Legend:
# Type in all cases: cell-based
# h D1 = target: T2, h D1 (Homo sapiens, UniProt P21728); test: Calcium mobilization (FLIPR, Fluo-3) in transfected COS-7 cells
# T2 construct: expressed in transfected cells; host or cells: COS-7
# Procedure: COS-7 cells were cultured in 225 cm^2 flasks in Dulbecco's Modified Eagle Medium (DMEM) with supplements (10% bovine calf serum, 4 mM glutamine, 100 units/ml penicillin and 100 μg/ml streptomycin) at 37° C., 5% CO2. Stock plates of COS-7 cells were trypsinized and split 1:6 every 3–4 days.
# For evaluating the function of a single chimeric G protein, the standard cDNA transfection ratio was 1:1 (10 μg GPCR cDNA and 10 μg chimeric G protein cDNA). For evaluating the function of a mixture of chimeric G proteins, the standard cDNA transfection ratio was 8:1:1 (16 μg GPCR cDNA, 2 μg Gαq/z cDNA, 2 μg Gαq/s cDNA).
# Twenty four hours after transient transfection, COS-7 cells were seeded into 96-well black wall microtiter plates coated with poly-D-lysine for assay the following day. […] After excess dye was discarded, cells were washed in assay buffer and layered with a final volume equal to 100 μl/well. Basal fluorescence was monitored in a fluorometric imaging plate reader (FLIPR™, Molecular Devices) with an excitation wavelength of 488 nm and an emission range of 500 to 560 nm. Laser excitation energy was adjusted so that basal fluorescence readings were approximately 10,000 relative fluorescent units. Cells were stimulated with agonists diluted in assay buffer (50 μl), and relative fluorescent units were measured at defined intervals (exposure=0.4 sec) over a 3 min period at room temperature. Maximum change in fluorescence was calculated for each well. Concentration-response curves derived from the maximum change in fluorescence were analyzed by nonlinear regression (Hill equation).
# h Y4 = target: T3, h Y4 (Homo sapiens, UniProt P50391); test: as above; settings: h Y4 + chimera in COS-7; agonist PP, max 10 μM
# T3 construct: expressed in transfected cells; host or cells: COS-7
# How it was run: (§1)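 Calcium responses to agonist were measured in COS-7 cells co-expressing each receptor with Gαq/z and/or Gαq/s chimeras, using Fluo-3 dye and FLIPR detection over 3 min at room temperature.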
# h GALR2 = target: T1, h GALR2; test: as above; settings: h GALR2 + chimera in COS-7; agonist GAL, max 10 μM
# How it was run: as §1
# Human NPFF2 = target: T4, Human NPFF2 (Homo sapiens, UniProt Q9Y5X5); test: Cl- current recording in Xenopus oocytes expressing GPCR and chimeric G protein; settings: Xenopus oocytes expressing Human NPFF2 and chimera; mean ± s.e.m
# T4 construct: linearized plasmids or PCR products containing the complete coding region of the genes; expressed in transfected cells; host or cells: Xenopus laevis oocytes (receptor cRNA injected)
# Procedure: Oocytes were harvested from Xenopus laevis and injected with mRNA transcripts as previously described (Quick and Lester, 1994; Smith et al., 1997). Receptor and chimeric G protein α subunit RNA transcripts were synthesized using the T7 polymerase (“Message Machine,” Ambion) from linearized plasmids or PCR products containing the complete coding region of the genes. Oocytes were injected with 5–25 ng synthetic receptor RNA and incubated for 3–8 days at 17 degrees. Three to eight hours prior to recording, oocytes were injected with 500 pg chimeric Gα subunit mRNA. Dual electrode voltage clamp (Axon Instruments Inc.) was performed using 3 M KCl-filled glass microelectrodes having resistances of 1–2 MOhm. Unless otherwise specified, oocytes were voltage clamped at a holding potential of −80 mV. During recordings, oocytes were bathed in continuously flowing (1–3 ml/min) medium containing 96 mM NaCl, 2 mM KCl, 1.8 mM CaCl2, 1 mM MgCl2, and 5 mM HEPES, pH 7.5 (ND96). Drugs were applied by local perfusion from a 10 μl glass capillary tube fixed at a distance of 0.5 mm from the oocyte. Experiments were carried out at room temperature. All values are expressed as mean±standard error of the mean.
# T2 sequence (P21728 whole entry): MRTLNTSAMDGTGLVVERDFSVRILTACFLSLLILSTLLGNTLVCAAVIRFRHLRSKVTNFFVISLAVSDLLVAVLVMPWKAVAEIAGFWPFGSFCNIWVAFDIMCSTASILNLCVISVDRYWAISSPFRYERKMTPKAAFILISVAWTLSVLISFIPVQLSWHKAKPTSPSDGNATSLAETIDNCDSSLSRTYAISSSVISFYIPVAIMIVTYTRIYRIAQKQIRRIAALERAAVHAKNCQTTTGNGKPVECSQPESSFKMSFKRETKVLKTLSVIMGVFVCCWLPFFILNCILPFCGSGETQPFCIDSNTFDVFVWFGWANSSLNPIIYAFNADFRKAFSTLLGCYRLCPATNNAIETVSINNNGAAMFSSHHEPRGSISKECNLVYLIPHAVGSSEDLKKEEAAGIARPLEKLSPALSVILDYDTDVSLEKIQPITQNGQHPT
# T3 sequence (P50391 whole entry): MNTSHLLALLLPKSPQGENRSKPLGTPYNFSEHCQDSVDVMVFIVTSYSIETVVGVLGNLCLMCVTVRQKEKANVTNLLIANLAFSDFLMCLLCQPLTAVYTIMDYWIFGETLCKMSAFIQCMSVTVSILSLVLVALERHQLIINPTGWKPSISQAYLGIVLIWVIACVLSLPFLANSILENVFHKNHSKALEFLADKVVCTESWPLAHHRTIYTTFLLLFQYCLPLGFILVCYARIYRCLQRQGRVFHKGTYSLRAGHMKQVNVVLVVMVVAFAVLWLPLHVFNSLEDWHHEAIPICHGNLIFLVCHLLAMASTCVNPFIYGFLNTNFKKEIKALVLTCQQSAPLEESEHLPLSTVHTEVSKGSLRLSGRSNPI
# T4 sequence (Q9Y5X5 103-522): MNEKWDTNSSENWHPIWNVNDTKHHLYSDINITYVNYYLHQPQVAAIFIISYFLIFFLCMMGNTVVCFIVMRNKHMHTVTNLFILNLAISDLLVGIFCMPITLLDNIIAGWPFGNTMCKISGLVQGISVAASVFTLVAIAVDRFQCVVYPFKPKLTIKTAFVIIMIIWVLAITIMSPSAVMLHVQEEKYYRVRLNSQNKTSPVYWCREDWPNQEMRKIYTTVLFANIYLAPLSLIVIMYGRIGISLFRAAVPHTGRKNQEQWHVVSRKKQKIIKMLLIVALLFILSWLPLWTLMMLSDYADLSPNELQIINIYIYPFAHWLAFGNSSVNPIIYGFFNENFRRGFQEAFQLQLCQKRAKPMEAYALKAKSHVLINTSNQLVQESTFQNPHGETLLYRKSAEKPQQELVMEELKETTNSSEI
Molecule,"maximal signal (h D1; human D1 receptor in COS-7, dopamine 0.3 nM to 100 μM concentration-response curve, example shown, FIG. 4B)","MAXIMAL SIGNAL (FLUORESCENCE UNITS) (h D1; human D1 receptors in COS-7, 10 μg chimera cDNA and 10 μg receptor cDNA, 100 μM dopamine, Table 9 parallel comparison, mean of two experiments)",MAXIMAL SIGNAL (FLUORESCENCE UNITS) (h Y4),MAXIMAL SIGNAL (FLUORESCENCE UNITS) (h GALR2),Response amplitudes (nA) in oocytes (Human NPFF2),"MAXIMAL SIGNAL (FLUORESCENCE UNITS) (h D1; h D1 + chimera in COS-7, agonist DA, max 100 μM)"
B1,"14,723 fluorescence units",4832 fluorescence units,9422 fluorescence units,5470 fluorescence units,1121 ± 261 nA,–
B2,–,–,7397 fluorescence units,4899 fluorescence units,–,13099 fluorescence units
